Source: PMC7695701, “Mechanism and inhibition of Streptococcus pneumoniae IgA1 protease” (Nature Communications, 2020)

Molecular target: T1, S. pneumoniae IgA1 protease catalytic region (IgA1P residues 665–1963), wild type (Streptococcus pneumoniae, UniProt Q59947)
T1 construct: Streptococcus pneumoniae IgA1 protease (M26 metalloprotease), catalytic region, residues 665-1963 of UniProt Q59947 / NCBI WP_000417171 (D39 and R6 strains); Thrombin cleavage site between MBP and IgA1P; also called IgA1P 665–1963; not shown: MBP, N-terminal, cleaved
Assay: cryo-EM structure; wild type IgA1P (residues 665-1963) with the mAb #2 Fab fragment; same procedure as for the IgA1 complex but in the absence of EDTA; 20 mM HEPES, pH 7.4, 150 mM NaCl
Conditions: both partners purified

T1 sequence (Q59947 665-1963): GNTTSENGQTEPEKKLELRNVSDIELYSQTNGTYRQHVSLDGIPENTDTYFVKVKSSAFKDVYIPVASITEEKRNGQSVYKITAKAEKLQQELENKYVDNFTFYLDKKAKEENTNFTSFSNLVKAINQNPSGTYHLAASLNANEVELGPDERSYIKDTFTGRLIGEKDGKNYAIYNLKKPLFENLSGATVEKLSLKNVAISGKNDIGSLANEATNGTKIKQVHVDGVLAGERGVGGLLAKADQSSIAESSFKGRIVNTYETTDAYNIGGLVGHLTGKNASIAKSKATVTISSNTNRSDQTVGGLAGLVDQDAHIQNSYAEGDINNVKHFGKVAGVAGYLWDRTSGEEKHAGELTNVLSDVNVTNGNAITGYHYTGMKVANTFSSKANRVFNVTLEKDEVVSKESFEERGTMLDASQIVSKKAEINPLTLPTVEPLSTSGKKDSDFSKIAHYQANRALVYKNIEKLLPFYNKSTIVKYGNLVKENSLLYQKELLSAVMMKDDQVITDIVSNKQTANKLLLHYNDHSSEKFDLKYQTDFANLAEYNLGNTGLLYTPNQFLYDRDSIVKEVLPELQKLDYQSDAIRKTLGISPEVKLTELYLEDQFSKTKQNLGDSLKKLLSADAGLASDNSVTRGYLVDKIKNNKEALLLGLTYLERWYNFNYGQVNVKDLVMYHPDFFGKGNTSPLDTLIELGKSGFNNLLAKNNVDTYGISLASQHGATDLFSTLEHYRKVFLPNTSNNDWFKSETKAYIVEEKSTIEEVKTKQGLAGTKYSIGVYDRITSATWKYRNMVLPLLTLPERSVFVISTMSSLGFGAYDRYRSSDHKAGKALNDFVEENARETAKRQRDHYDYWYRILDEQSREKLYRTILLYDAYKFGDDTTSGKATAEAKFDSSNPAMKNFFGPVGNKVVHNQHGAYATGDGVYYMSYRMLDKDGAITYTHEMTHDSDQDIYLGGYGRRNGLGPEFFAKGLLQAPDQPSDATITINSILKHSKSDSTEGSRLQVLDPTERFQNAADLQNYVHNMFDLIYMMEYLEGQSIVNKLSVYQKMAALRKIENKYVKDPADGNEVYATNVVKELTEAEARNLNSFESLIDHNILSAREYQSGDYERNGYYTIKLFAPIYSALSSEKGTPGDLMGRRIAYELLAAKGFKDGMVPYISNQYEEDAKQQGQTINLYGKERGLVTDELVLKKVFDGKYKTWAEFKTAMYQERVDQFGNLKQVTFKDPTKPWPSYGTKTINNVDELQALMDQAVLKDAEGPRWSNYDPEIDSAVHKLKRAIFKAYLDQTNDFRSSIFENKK

B1: mAb #2 Fab fragment (neutralizing murine monoclonal antibody against IgA1P) (Fab, V domains shown)
VH: EVQLQQSGPELEKPGASMKISCKASGYSFTGYNMNWVKQSNGKSLEWIGSIDPYTGGSNYNQKFMGKATLTVDKSSSTAYMQLKSLTSEDSAVYYCATVVGRVYAMDYWGQGTSVTVSS
VL: EEVLTQSPAIMSASPGEKVTMTCSASSSVSYIHWYQQKSNTSPKLWIYATSKLASGVPGRFSGSGSGNSYSLTISSMEAEDVATYYCFQGSGYPFTFGSGTKLEIK
notes: PDB 3RHW named as the most similar heavy chain; PDB 4HXA named as the most similar light chain; Raised against purified full-length protease; also called neutralizing mAb Fab fragment; source: hybridoma (Balb C mouse spleen cells fused with SP2/0 myeloma cells), IgG purified on Protein G columns; Fab excised with immobilized Ficin
- binding result: binds
